Results: the supplement of paper PMC7125110
± gives the standard error. This sample holds only a part of the variants without activity.

B1: glmS ribozyme (parent)
chain: AUAAAAGCGCCAGAACUACAGAAAUGUAGUUGACGAGGAGGAGGUUUAUCGAAUUUUCGGCGGAUGCCUCCAAA

Key:
Settings in all cases: with glucosamine-6-phosphate
[1] = variants of: B1; assay: self-cleavage kobs at 40 uM GlcN6P; higher = faster cleavage; RNA array
How it was run: (§1)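 Glucosamine-6-phosphate, from 40 μM to 10 mM in HEPES/KCl/Mg(OAc)2 buffer, was flowed over sequenced MiSeq chips carrying barcoded ribozyme variants transcribed in situ by E. coli RNA polymerase. A hybridised Cy3 probe tracked the variants at 37 °C as tiles were imaged over ~14 h. kobs, kcat and KM were obtained by fitting normalised per-tile medians to exponential decays and then applying weighted Michaelis–Menten fits across concentrations.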

[2] = variants of: B1; assay: self-cleavage kobs at 10000 uM GlcN6P; higher = faster cleavage; RNA array
How it was run: as §1

[3] = variants of: B1; assay: self-cleavage kobs at 640 uM GlcN6P; higher = faster cleavage; RNA array
How it was run: as §1

[4] = variants of: B1; assay: self-cleavage kobs at 2500 uM GlcN6P; higher = faster cleavage; RNA array
How it was run: as §1

[5] = variants of: B1; assay: self-cleavage kobs at 160 uM GlcN6P; higher = faster cleavage; RNA array
How it was run: as §1

Row | Variant | self-cleavage kobs at 40 uM GlcN6P [1] [s⁻¹] | self-cleavage kobs at 10000 uM GlcN6P [2] [s⁻¹] | self-cleavage kobs at 640 uM GlcN6P [3] [s⁻¹] | self-cleavage kobs at 2500 uM GlcN6P [4] [s⁻¹] | self-cleavage kobs at 160 uM GlcN6P [5] [s⁻¹]
1 | AUAAAAGCGUCAGAACUACAGAAAUGUAGUUGACGAGGAGGAGGUUUAUGGAAUUUGCGGCGGAUGCCUCCAAA [C10U C50G U57G] | 0.000105 ± 2.4e-05 | 4.71e-05 ± 1.6e-05 |  |  | 
2 | AUAAAAGUGCCAGAACUACAGAAAUGUAGUUGACGAGGAGGAGGUUUAUCGAAUUUUCGGCGGAUGCAUCCAAA [C8U C68A] | < 1e-05 |  | < 1e-05 | < 1e-05 | 
3 | AUAAAAGCACCAGAGCUACAGAAAUGUAGUUGACGAGGAGGAGGUUUAUCGAAUUUUCGGCGGAUGCCUCCAAA [G9A A15G] | < 1e-05 | 2.27e-05 ± 1.1e-05 | < 1e-05 |  | < 1e-05
4 | AUAAAUGCGCCAGAACUACAGAAAUGUAGUUGCCGAGGAGGAGGUUUAUCGAAUUUUCGGCGGAUGCCUCCAAA [A6U A33C] | < 1e-05 |  | < 1e-05 | < 1e-05 | < 1e-05
5 | AUAAAAGCGCCAGAACUACAGAAAUGUAGUUGACGAGGAGCAGGUUUAUCGAAUUUUCGGCGGAGGCCUCCAAA [G41C U65G] | < 1e-05 |  | < 1e-05 |  | < 1e-05
6 | AUAAAAGCGCCAGAACUACAGAAAUGUAGUUGACGAGGAGGAGGUAUAUCAAAUUUUCGGCGGAUGCCUCCAAA [U46A G51A] | < 1e-05 | < 1e-05 |  | < 1e-05 | < 1e-05
7 | AUAAAUGCGCCAGAACUACAGAAAUGUAGUCGACGAGGAGGAGGUUUAUGGAAUUUUCGGCGGAUGCCUCCAAA [A6U U31C C50G] | 7.08e-05 ± 1.6e-05 | 3.4e-05 ± 1.4e-05 |  |  | 
8 | AUAAAAGCGCCAGAACUACAGAAAUGUAGUUGACGAGGAGUAGGUUUAUCGAAUUUUCGGCGGAUCCUUCCAAA [G41U G66C C68U] | < 1e-05 |  | < 1e-05 | < 1e-05 | < 1e-05
9 | AUAAAAGCGCCAGAAGUACAGAAAUGUAGUUGACUAGGAGGAGGUUUAUCGAAUUUUCGGCGGAUGCCUCCAAA [C16G G35U] | < 1e-05 | < 1e-05 | < 1e-05 | < 1e-05 | < 1e-05
10 | AUAAAAGCGGCAGAACUACAGAAAUGUAGUUGACGAGGAGGAGGUUUAUCGAAUUUUCGGUGGAUGCCUCAAAA [C10G C61U C71A] | < 1e-05 |  |  |  | 
11 | AUAAAAGCGCCAGAACUACAGAAAUGUAGUUGACGAGGAUGAGGUUUGUCGAAUUUUCUGCGGAUGCCUCCAAA [G40U A48G G59U] | < 1e-05 | < 1e-05 |  | < 1e-05 | < 1e-05
12 | AUAAAAGCGCCAGAACUACAGAAAUGUAGUUGACGAGGAGGAGGUUUAGCGAAUUUUCGGUGGAUGCCUCCAAA [U49G C61U] | < 1e-05 |  |  |  | < 1e-05
13 | AUAAAAGCGCCAGAACUACAGAAAUGUAGAUGACGAGGAGAAGGUUUAUCGAAUUUUCGACGGAUGCCUUCAAA [U30A G41A G60A C70U] | < 1e-05 |  |  |  | 
14 | AUAAAAGCGGCAGAACUACAGAAAUGUAAUUGACGAGGAGGAGGUUUAUCGAAGUUUCGGCGGAUGCCUCCAAA [C10G G29A U54G] | < 1e-05 |  |  |  | 
15 | AUAAAAGCGCCAGAACUACAGAAAUGUAGUUGACGAGGAGGAGCUUUCUCGAAUUUUCGGCGGAUGCCUCCAAA [G44C A48C] | < 1e-05 | < 1e-05 |  | < 1e-05 | < 1e-05
16 | AUAAAAACGCCAGAACUACAGAAAUGUAGUUGACGAGGAGGAGGUUUAUCGAAUUAUCGGCGGAUGCCUCCAAA [G7A U56A] | < 1e-05 |  | < 1e-05 |  | < 1e-05
17 | AUAAAAUCACCAGAACUACAGAAAUGUAGUUGACGAGGAGGAGGUUUAUCGAAUUUGCGGCGGAUGACUCCAAA [G7U G9A U57G C67A] | < 1e-05 |  |  |  | 
18 | AUAAAAGCGCCAGAACUACAGAAAUGUAGUUGACGAGGAGGAGGUUUAUCGAAUUUUCGGAGGACGCCUUCAAA [C61A U65C C70U] | < 1e-05 | < 1e-05 |  |  | 
19 | AUAAAAGCGCCAGAACUACAGAAAUGUAGUUGACGAGUAGGAGGUUUAUUCAAUUUUCGGCGGAUGCCACCAAA [G38U C50U G51C U69A] | 8.35e-05 ± 3.9e-05 |  |  |  | 
20 | AUAAAAGCGCCAGAAGUACAGAAAUGUAGUUGACGAGGAGGAGGUUUAUCGAAUUUUCGGCGAAUGCCUCCAAA [C16G G63A] | < 1e-05 | < 1e-05 |  |  | 
21 | AUAAAAGCGCCAGAACUACAGAAAUGUAGUUGUCGAGGAGGAGGUUUAUCGCAUUUUCGGCGGAUGCCUCCAAA [A33U A52C] | < 1e-05 | < 1e-05 |  |  | < 1e-05
22 | AUAAAAGCGACAGAACUACAGAAAUGUAGUUGCCGAGGAGGAGGUUUAUCGAAUUUUCGGCGGAUGCCUCCAAA [C10A A33C] | < 1e-05 | < 1e-05 | < 1e-05 | < 1e-05 | < 1e-05
23 | AUAAAAGCGCCAGAACUACAGAAAUGUAGUUGACGAGGACGAGGUUUAUCGAAUUAUCGGCCGAUGCCUCCAAA [G40C U56A G62C] | < 1e-05 |  |  | < 1e-05 | 
24 | AUAAAAGCGCCAGAACUACAGAAAUGUAAUUGACUAGGAGGAGGUUUAUUGAAUUUUCGGCGGAUGCCUCCAAA [G29A G35U C50U] | < 1e-05 | < 1e-05 |  |  | 
25 | AUAAAAGCGCCAGAACUACAGAAAUGUAGUUGACGAGGAGGAGGUUUAUCGAAUUUGCGGCAGAUGCCUCCAAA [U57G G62A] | < 1e-05 | < 1e-05 |  |  | 
26 | AUAAAGGGGCCAGAACUACAGAAAUGUAGUUGACGAGGCGGAGGUUUAUCGAAUCUUCGGCGGAUGCCUACAAA [A6G C8G A39C U55C C70A] | < 1e-05 | < 1e-05 |  |  | 
27 | AUAAAAGCGCCAGAACUACAGAAAUGUAGUUGACGAGGAGGAGGUUUAAGGAAUUUACGGCGGAUGACUCAAAA [U49A C50G U57A C67A C71A] | 0.000473 ± 0.00018 |  | 0.000357 ± 0.00011 | 7.6e-05 ± 3.3e-05 | 0.000223 ± 6.6e-05
28 | AUAAAAGCGACAGAACUACAGAAAUGUAGUUGACGAGGUGGAGGUUUACCGAAUUUUCGGCGGAUGCCUCCAAA [C10A A39U U49C] | < 1e-05 | < 1e-05 |  |  | 
29 | AUAAAAGCGCCGGAACUACAGAAAUGUAGUUGACGAGGAGGAGGUUUAUCGAAUUUUCGGCUGAUGCCUCCAAA [A12G G62U] | < 1e-05 |  | < 1e-05 |  | 
